Test results reported in patent US20130287781A1.

How the values were obtained:
[1] = molecular target: Rat NOGO (A56) plus GST tag (rat); assay: SPR (Biacore T100), Nogo-A orthologue amine-coupled to CM5, antibody 0.125-8 nM flowed over; mean
[2] = molecular target: Cynomolgus monkey NOGO (A56) plus GST tag (cynomolgus monkey); assay: as above
[3] = molecular target: Squirrel monkey NOGO (A56) plus GST tag (squirrel monkey); assay: as above
[4] = molecular target: Marmoset NOGO (A56) plus GST tag (marmoset); assay: as above
Sequence of Marmoset NOGO (A56) plus GST tag (marmoset) (chain, as listed by the source limits assumed): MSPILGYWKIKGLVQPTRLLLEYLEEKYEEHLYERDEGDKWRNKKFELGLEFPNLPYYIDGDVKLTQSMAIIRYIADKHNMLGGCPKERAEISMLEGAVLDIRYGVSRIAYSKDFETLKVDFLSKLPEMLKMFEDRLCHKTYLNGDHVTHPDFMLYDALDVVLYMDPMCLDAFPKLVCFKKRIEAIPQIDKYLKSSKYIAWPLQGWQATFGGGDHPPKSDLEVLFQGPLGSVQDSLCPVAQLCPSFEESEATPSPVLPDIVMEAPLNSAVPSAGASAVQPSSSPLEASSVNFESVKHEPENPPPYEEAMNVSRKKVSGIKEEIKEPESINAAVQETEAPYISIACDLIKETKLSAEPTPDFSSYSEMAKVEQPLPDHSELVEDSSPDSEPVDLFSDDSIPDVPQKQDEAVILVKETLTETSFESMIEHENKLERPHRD

[5] = molecular target: Rat NOGO (A56) plus GST tag (rat); assay: direct ELISA on GST-NOGO-A56 from rat, Abs490
[6] = molecular target: GST-human NOGO-A56 (human); assay: SPR (Biacore T100), human Nogo-A amine-coupled to CM5, antibody 0.125-8 nM flowed over; mean
Sequence of GST-human NOGO-A56 (human) (chain, as listed by the source limits assumed): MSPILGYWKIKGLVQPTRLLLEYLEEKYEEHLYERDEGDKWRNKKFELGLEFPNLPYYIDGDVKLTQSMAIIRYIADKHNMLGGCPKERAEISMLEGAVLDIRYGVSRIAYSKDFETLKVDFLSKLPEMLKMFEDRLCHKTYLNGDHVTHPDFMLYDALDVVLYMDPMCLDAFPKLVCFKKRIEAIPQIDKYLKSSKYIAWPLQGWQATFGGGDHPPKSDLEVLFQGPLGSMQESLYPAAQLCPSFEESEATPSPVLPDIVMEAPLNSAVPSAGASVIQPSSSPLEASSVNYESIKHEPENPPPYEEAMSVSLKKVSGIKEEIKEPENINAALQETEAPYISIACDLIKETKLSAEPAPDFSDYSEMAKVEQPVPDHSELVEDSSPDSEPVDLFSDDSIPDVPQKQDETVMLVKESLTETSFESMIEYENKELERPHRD

[7] = molecular target: Squirrel monkey NOGO (A56) plus GST tag (squirrel monkey); assay: direct ELISA on GST-NOGO-A56 from squirrel monkey, Abs490
[8] = molecular target: Rat NOGO (A56) plus GST tag (rat); assay: SPR (Biacore T100), reverse format: antibody captured by Protein A, GST-NOGO-A56 flowed over; mean
[9] = molecular target: Cynomolgus monkey NOGO (A56) plus GST tag (cynomolgus monkey); assay: as above
[10] = molecular target: Squirrel monkey NOGO (A56) plus GST tag (squirrel monkey); assay: as above
[11] = molecular target: GST-human NOGO-A56 (human); assay: as above
[12] = molecular target: Marmoset NOGO (A56) plus GST tag (marmoset); assay: as above
[13] = molecular target: Cynomolgus monkey NOGO (A56) plus GST tag (cynomolgus monkey); assay: direct ELISA on GST-NOGO-A56 from cynomolgus, Abs490
[14] = molecular target: Marmoset NOGO (A56) plus GST tag (marmoset); assay: direct ELISA on GST-NOGO-A56 from marmoset, Abs490

Sequence of Squirrel monkey NOGO (A56) plus GST tag (squirrel monkey) (chain, as listed by the source limits assumed): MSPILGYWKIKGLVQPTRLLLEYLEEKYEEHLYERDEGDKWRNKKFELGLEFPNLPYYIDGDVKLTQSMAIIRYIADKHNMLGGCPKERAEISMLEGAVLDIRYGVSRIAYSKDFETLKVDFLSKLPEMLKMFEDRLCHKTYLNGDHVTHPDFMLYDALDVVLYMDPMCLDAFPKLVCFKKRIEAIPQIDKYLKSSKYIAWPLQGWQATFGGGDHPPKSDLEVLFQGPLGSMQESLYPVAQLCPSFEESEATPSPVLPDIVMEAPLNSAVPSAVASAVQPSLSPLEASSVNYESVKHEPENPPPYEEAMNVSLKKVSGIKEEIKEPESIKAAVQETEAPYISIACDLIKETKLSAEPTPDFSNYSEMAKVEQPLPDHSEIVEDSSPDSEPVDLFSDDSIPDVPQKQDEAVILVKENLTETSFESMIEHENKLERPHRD
Sequence of Rat NOGO (A56) plus GST tag (rat) (chain, as listed by the source limits assumed): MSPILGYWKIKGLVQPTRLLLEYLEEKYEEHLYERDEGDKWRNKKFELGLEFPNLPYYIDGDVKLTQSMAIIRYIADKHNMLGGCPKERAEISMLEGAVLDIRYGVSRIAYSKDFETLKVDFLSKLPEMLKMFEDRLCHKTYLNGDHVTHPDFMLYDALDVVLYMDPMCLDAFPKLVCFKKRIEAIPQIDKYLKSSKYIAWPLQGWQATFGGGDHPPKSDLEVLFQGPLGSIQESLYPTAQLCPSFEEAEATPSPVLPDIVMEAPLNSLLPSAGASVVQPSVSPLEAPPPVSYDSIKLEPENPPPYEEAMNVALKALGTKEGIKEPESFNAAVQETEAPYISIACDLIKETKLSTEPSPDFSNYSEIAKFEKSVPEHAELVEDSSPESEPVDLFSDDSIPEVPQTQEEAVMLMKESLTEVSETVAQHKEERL
Sequence of Cynomolgus monkey NOGO (A56) plus GST tag (cynomolgus monkey) (chain, as listed by the source limits assumed): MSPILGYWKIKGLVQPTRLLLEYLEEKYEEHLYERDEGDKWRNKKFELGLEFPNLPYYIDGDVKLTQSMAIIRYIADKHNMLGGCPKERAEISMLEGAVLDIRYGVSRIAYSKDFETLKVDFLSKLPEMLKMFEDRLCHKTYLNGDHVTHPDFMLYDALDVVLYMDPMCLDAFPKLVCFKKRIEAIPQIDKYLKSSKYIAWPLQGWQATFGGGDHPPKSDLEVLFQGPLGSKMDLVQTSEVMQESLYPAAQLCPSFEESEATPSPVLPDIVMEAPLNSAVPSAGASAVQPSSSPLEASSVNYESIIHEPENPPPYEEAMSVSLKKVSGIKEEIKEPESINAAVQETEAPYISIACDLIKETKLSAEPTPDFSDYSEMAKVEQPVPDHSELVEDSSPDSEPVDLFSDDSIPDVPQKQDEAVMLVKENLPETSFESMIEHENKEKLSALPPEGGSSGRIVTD

Q: Which Kd [1] does the source give for chimeric 11C7 (antibody) here?
A: 0.11 nM

Q: And the Kd [2]?
A: 0.23 nM

Q: What about the Kd [3] of the same substance?
A: 0.26 nM

Q: What about the Kd [4] of the same substance?
A: 0.24 nM

Q: And the EC50 (read off the curve) [5]?
A: 0.06 µg/mL

Q: And the Kd [6]?
A: 0.19 nM

Q: And the EC50 (read off the curve) [7]?
A: 0.04 µg/mL

Q: And the Kd [8]?
A: 0.64 nM

Q: What about the Kd [9] of the same substance?
A: 0.76 nM

Q: What about the Kd [10] of the same substance?
A: 2.69 nM

Q: And the Kd [11]?
A: 0.57 nM

Q: And the Kd [12]?
A: 1.33 nM

Q: What about the EC50 (read off the curve) [13] of the same substance?
A: 0.06 µg/mL

Q: And the EC50 (read off the curve) [14]?
A: 0.04 µg/mL
